Paper PMC3286403
Where “and” joins values, the source holds several entries; their conditions need not be identical. Equal values may be shown once. Read-outs that look alike come from different tables or passages of the source.

Experiments:
[1] = biological target: His6-tagged HIV-1 integrase Y194E (HIV-1); test: AlphaScreen or HTRF; HTRF; His-IN 80 nM, GST-LEDGF/p75 or GST-TNPO3 5 nM, anti-GST-Europium Cryptate and anti-His-XL665; 25 mM Hepes pH 7.3, 150 mM NaCl, 2 mM MgCl2, 0.1% BSA, 1 mM DTT; read 2 h after incubation; signal as percent of IN WT ΔF
[2] = biological target: His6-tagged HIV-1 integrase W131A (HIV-1); test: as above
[3] = biological target: His6-tagged HIV-1 integrase K188Q (HIV-1); test: as above
[4] = biological target: His-tagged HIV-1 integrase Y194A (HIV-1); test: as above
[5] = biological target: His6-tagged HIV-1 integrase Q168L (HIV-1); test: as above
[6] = biological target: untagged HIV-1 integrase W131A (HIV-1); test: SEC; 2.5 μM untagged IN on Superdex 200 10/300 GL; 50 mM HEPES pH 7.4, 750 mM NaCl, 10% glycerol; calibrated with protein standards; no DNA
[7] = biological target: untagged HIV-1 integrase Y194E (HIV-1); test: as above
[8] = biological target: untagged HIV-1 integrase wild type (HIV-1); test: as above
[9] = biological target: His6-tagged HIV-1 integrase Y194E (HIV-1); test: AlphaScreen or HTRF; HTRF; His-IN 80 nM, GST-LEDGF/p75 or GST-TNPO3 5 nM, anti-GST-Europium Cryptate and anti-His-XL665; 25 mM Hepes pH 7.3, 150 mM NaCl, 2 mM MgCl2, 0.1% BSA, 1 mM DTT; read 2 h after incubation; signal as percent of IN WT ΔF; remark: listed apart in the source
[10] = biological target: His6-tagged HIV-1 integrase W131A (HIV-1); test: as above; remark: listed apart in the source
[11] = biological target: His6-tagged HIV-1 integrase Y194F (HIV-1); test: as above
[12] = biological target: His6-tagged HIV-1 integrase Q168L (HIV-1); test: as above; remark: listed apart in the source

GST-LEDGF/p75 full length (from UniProt O75475 1-530) (natural protein)
percent decrease of binding against IN WT (HTRF) [1]: 26%
percent of IN WT interaction (HTRF) [2]: 9.3%
percent decrease of binding against IN WT (HTRF) [3]: 64.9%
percent decrease of binding against IN WT (HTRF) [4]: 27%
percent of IN WT interaction (HTRF) [5]: 16.3%

untagged HIV-1 integrase W131A (enzyme)
stoichiometry N [6]: 4 and 2

untagged HIV-1 integrase Y194E (enzyme)
stoichiometry N [7]: 4

untagged HIV-1 integrase wild type (enzyme)
stoichiometry N [8]: 4 and 2

B1: GST-TNPO3 full length (natural protein)
chain: MEGAKPTLQLVYQAVQALYHDPDPSGKERASFWLGELQRSVHAWEISDQLLQIRQDVESCYFAAQTMKMKIQTSFYELPTDSHASLRDSLLTHIQNLKDLSPVIVTQLALAIADLALQMPSWKGCVQTLVEKYSNDVTSLPFLLEILTVLPEEVHSRSLRIGANRRTEIIEDLAFYSSTVVSLLMTCVEKAGTDEKMLMKVFRCLGSWFNLGVLDSNFMANNKLLALLFEVLQQDKTSSNLHEAASDCVCSALYAIENVETNLPLAMQLFQGVLTLETAYHMAVAREDLDKVLNYCRIFTELCETFLEKIVCTPGQGLGDLRTLELLLICAGHPQYEVVEISFNFWYRLGEHLYKTNDEVIHGIFKAYIQRLLHALARHCQLEPDHEGVPEETDDFGEFRMRVSDLVKDLIFLIGSMECFAQLYSTLKEGNPPWEVTEAVLFIMAAIAKSVDPENNPTLVEVLEGVVRLPETVHTAVRYTSIELVGEMSEVVDRNPQFLDPVLGYLMKGLCEKPLASAAAKAIHNICSVCRDHMAQHFNGLLEIARSLDSFLLSPEAAVGLLKGTALVLARLPLDKITECLSELCSVQVMALKKLLSQEPSNGISSDPTVFLDRLAVIFRHTNPIVENGQTHPCQKVIQEIWPVLSETLNKHRADNRIVERCCRCLRFAVRCVGKGSAALLQPLVTQMVNVYHVHQHSCFLYLGSILVDEYGMEEGCRQGLLDMLQALCIPTFQLLEQQNGLQNHPDTVDDLFRLATRFIQRSPVTLLRSQVVIPILQWAIASTTLDHRDANCSVMRFLRDLIHTGVANDHEEDFELRKELIGQVMNQLGQQLVSQLLHTCCFCLPPYTLPDVAEVLWEIMQVDRPTFCRWLENSLKGLPKETTVGAVTVTHKQLTDFHKQVTSAEECKQVCWALRDFTRLFR
percent decrease of binding against IN WT (HTRF) [9]: 23.5%
percent of IN WT (HTRF) [10]: 49%
percent decrease of binding against IN WT (HTRF) [11]: 14.4%
percent of IN WT (HTRF) [12]: 45%
